{"source": "paper PMC7698151", "about": "“Evidence for Pentapeptide-Dependent and Independent CheB Methylesterases” (International Journal of Molecular Sciences, 2020)", "binders": {"B1": {"name": "P. aeruginosa PAO1 CheB2 (PA0173) (enzyme)", "chain": "MPISVLVVDDSALIRSLLKEIIQADPELRLVGCAPDAFVARDLIKQHAPDVISLDVEMPRMDGLTFLDKLMKARPTPVLMISSLTERGSEATLRALELGAVDFIAKPRLGIAEGMQAYAEEIRAKLKTVARARLRRRAADAPAPPESAAPLLSTEKIIALGASTGGTEALKEVLLGLPAHSPGVVITQHMPPGFTRSFAERLDRLTRLSVSEARDGDRILPGHALVAPGDHHMEVQRSGANYVVRLNRQAQVNGHRPAVDVMFESLARCAGRNLLAGLLTGMGKDGARGLLAIRQAGGYTLAQDEATCVVYGMPREAVELGAAEDVLPLERIAAALLQQAARRGSGNRL", "notes": "source: E. coli BL21(DE3), purified (HisTrap HP)"}}, "molecular_target": "T1, […] pentapeptide of the McpB (Aer2) chemoreceptor (Pseudomonas aeruginosa PAO1)", "T1 construct": "also called GWEEF; McpB pentapeptide; source: synthetic peptide (Biomedal S.L., Seville, Spain)", "test": "ITC", "details": "both partners purified"}
{"binder": "B1", "values": [{"measurement": "Kd", "value": "93 ± 15", "unit": "µM"}]}
